Experiment [1] addresses protein δ (ParA-Ib type Walker-box ATPase) of plasmid pSM19035, wild type (Streptococcus pyogenes (plasmid pSM19035)). Put plainly: SEC + cross-linking.
Experiment [2] has as its target δ2K36A (Walker A mutant of protein δ) (Streptococcus pyogenes (plasmid pSM19035)). The experiment can be described thus: SEC + cross-linking.

By stoichiometry N is commonly meant a count of units in the complex or per binding partner. With “protein δ (ParA-Ib type Walker-box ATPase) of plasmid pSM19035, wild type (enzyme)”, the stoichiometry N in experiment [1] worked out at 2. On to “δ2K36A (Walker A mutant of protein δ) (enzyme)”, for which the stoichiometry N in experiment [2] came out at 2.
